What is called Kd is the constant that tells how readily two partners part at equilibrium. The low end stands for higher affinity, the high end for lower affinity. The koff is the first-order rate constant of dissociation. A high value points to fast dissociation. For orientation: kon means a measure of how fast the partners come together.

The source of these data is US20030176674A1 (Human Genome Sciences, published 2003).

The experiment has as its target T1, secreted form of VEGF-2 polypeptide (human vascular endothelial growth factor 2) (human, UniProt P49767 112-227, limits assumed).
T1 construct: also called secreted VEGF-2 protein
T1 sequence: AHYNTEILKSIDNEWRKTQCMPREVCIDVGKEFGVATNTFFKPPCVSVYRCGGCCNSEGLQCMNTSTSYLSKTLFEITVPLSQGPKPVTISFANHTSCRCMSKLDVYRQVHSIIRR
Nature of the experiment: BIAcore (SPR), CM5 chip; antibody captured by goat anti-human Fc; secreted VEGF-2 injected at 2.9-95.2 nM; double reference subtraction. On the procedure: A high-density CM5 BIAcore sensor chip was prepared using 10 ug/mL of purified goat anti-human fc antibody as the capture reagent. The optimal pH for immobilization was pH 4 (10 mM sodium acetate). An EDC/NHS complex was applied first to activate the carboxyl groups on the sensor matrix. After the VEGF-2 antibodies were immobilized, the esters were inactivated with ethanolamine. Both a control and an experimental flow cell were used.
The kinetics cycle was performed with the following procedures. The flow rate for the entire binding cycle was 25 uL/minute. The purified VEGF-2 antibody, at 5 ug/mL, was injected only in the experimental flow cell for 1 minute. The secreted form of VEGF-2 was then injected into control and experimental flow cells. The concentration the secreted form of VEGF-2 polypeptide varied for each cycle. The secreted form of VEGF-2 polypeptide (calculated as a 21 kDa dimer) was diluted in HBS-EP from 2 ug/mL (95.2 nM) to-0.06 ug/mL (2.9 nM). Both association and dissociation was 7 minutes. Regeneration was performed using 8 uL of 25 mM HCl for all flow cells.
Evaluation was performed using the double reference subtraction, which subtracts the control flow cell from the experimental and also subtracts a buffer injection.
Background: SPR reads the build-up and loss of mass on a sensor chip optically.

Changes are numbered by the printed parent chain.

B1: antibody 1.2.3 (antibody expressed by hybridoma cell line 1.2.3, ATCC Deposit Number PTA-3342) (antibody, human IgG2, V domains shown)
VH: QVQLVESGGGVVQPGRSLRLSCAASGFTFSRYGMHWVRQAPGKGLEWVALIWYDGSNKYYADSVKGRFTISRDNSKNTLYLQMNSLRAEDTAVYYCARDGFGSGCFDYWGQGTLVTVSS
VL: DIVMTQTPLSLSVTPGQPASISCKSSQSLLHSDGKTYLYWHLQKPGQPPQLLIYEVSHRFSGVPDRFSGSGSGTDFTLKISRVEAEDVGLYYCVQSIQLPLTFGGGTKVEIKR
notes: Purified hybridoma antibody from XenoMouse; also called Hybridoma 1.2.3
Molecule B1 registered a Kd of 0.321 nM, a koff of 9.49e-05 s⁻¹ and a kon of 295000 M⁻¹ s⁻¹.

B2: antibody 1.5.1 (antibody expressed by hybridoma cell line 1.5.1, ATCC Deposit Number PTA-3341) (antibody, V domains shown)
VH: QVQLVESGGGVVQPGRSLRLSCAASGFTFSRYGMHWVRQAPGKGLEWVAIIWYDGSDKYYADSVKGRFTISRDNSKNTLYLQMSSLRAEDTAVYYCARGTVGASFDYWGQGTLVTVSS
VL: B1 VL with H31N, H41Y, Y54N, H58N, L90V, V94L
notes: Purified hybridoma antibody from XenoMouse; VAX1510 is the IgG1 conversion of 1.5.1; also called Hybridoma 1.5.1
The molecule B2 returned a dissociation constant Kd of 1.79 nM, a koff of 0.000657 s⁻¹ and an on-rate (kon) of 367000 M⁻¹ s⁻¹.
